Here are results for one substance from PMC2937010.

In the test the target is RMI1 OB2 domain (C-terminal OB fold of RMI1, residues 473-625) (human) (UniProt Q9H9A7). Description: SEC. Background: Size exclusion chromatography separates by hydrodynamic size, large species first.

What is called stoichiometry N is a count of units in the complex or per binding partner.

In turn, “RMI2 (RMI core complex, wild type) (natural protein)” gave a stoichiometry N of 1.
